Measurements published in article PMC5318895, “Inhibition of N1-Src kinase by a specific SH3 peptide ligand reveals a role for N1-Src in neurite elongation by L1-CAM” (Scientific Reports, 2017).
No end group written: not given here.

How the values were obtained:
N1-Src [1] = biological target: T1, N1-Src (Rattus norvegicus, UniProt Q9WUD9); assay: co-immunoprecipitation of N1-Src-FLAG and CFP-PDN1 from COS7 cells; assay type: binding; design: His; made in house; host or cells: E. coli; conditions: COS7 cells co-transfected with N1-Src-FLAG, lysed after 48 h; anti-FLAG IP, anti-GFP detection
N1-Src [2] = biological target: T1, N1-Src; assay: morphology of COS7 cells transfected with N1-Src-FLAG; assay type: cell-based; conditions: for effect on N1-Src-induced shrinkage of the cell soma (cell area) / effect on number of neurites (processes) per cell: COS7, co-transfection with N1-Src-FLAG 48 h, mean, n = 3 experiments, one way ANOVA
Method: (§1) Previous studies have shown that soluble SH3 ligands can enhance Src family kinase activity in vitro[20][21]. […] This experiment raised the possibility that PDN1 could act as an N1-Src inhibitor in cells. […] We observed that COS7 cells transfected with N1-Src-FLAG underwent a striking change in morphology within 48 h (Fig. 3a). Similar to that previously observed in Xenopus epithelial cells, overexpression of the kinase induced the growth of neurite-like processes (Fig. 3b) and an approximate 35% reduction in area of the cell soma (Fig. 3c). […] Using cell morphology as a readout, we assessed the effect of CFP-PDN1 and PDN1(P5A) on N1-Src activity in cells. […] Furthermore, the peptides had no significant effect upon the morphology of C-Src transfected cells. We also assessed the effect of PDN1 on N2-Src expressing cells because the first five amino acids of its SH3 insert are identical to that in N1-Src[3].
Figure 3 CFP-PDN1 inhibits the biological activity of N1-Src in cells. (a) COS7 cells were transfected for 48 h with empty plasmid (FLAG), C-, N1- or N2-Src-FLAG in combination with CFP, CFP-PDN1 or CFP-PDN1(P5A) and processed for immunofluorescence (green = CFP, red = Src-FLAG). Scale bar = 10 μm. Twenty representative fields of view (~50 cells) per condition in each experiment were analysed to quantify (b) number of processes per cell and (c). Data were plotted as mean ± SEM (n = 3 experiments). Statistical analysis was performed by one way ANOVA and post-hoc Tukey test (*P < 0.05; ***P < 0.001; n.s = not significant).
COS7 cells were plated at a density of 3 × 10^4 cells per well of a 24 well plate or 10^5 cells per well of a 6 well plate and transfected using EcoTransfect 24 h after plating according to the manufacturer’s instructions (Oz Biosciences, Marseille, France). Rat cerebellar granule and hippocampal neurons were prepared as previously described[40][41] and approved by the Biology Ethics Committee, University of York. The animals were euthanised according to Schedule 1 of the UK Home Office Animals (Scientific Procedures) Act. Neurons were plated at a density of 2.5 × 10^5 cells per coverslip and transfected after 24 h using a calcium phosphate kit (Promega, Southampton, UK) or Lipofectamine2000 (Invitrogen, Paisley UK) according to the manufacturer’s instructions. Following transfection the medium was replaced with MEM culture medium with 10 μM arabinofuranosyl cytidine for the indicated time before fixing for staining and morphological analysis. For L1-CAM assays, a 10 μl droplet containing 25 μg/ml L1-CAM extracellular domain (R&D Systems) and 1 mg/ml fluorescein isothiocyanate (FITC) was spotted onto the centre of a poly-D-lysine coated coverslip and air dried for 1 h prior to plating neurons.
Analysis of COS7 cell area was performed with ImageJ software. The NeuronJ plugin[43] was used for the quantification of process length and branching in both COS7 cells and neurons. Where appropriate, statistical analyses of the data were performed with SigmaPlot software using one way ANOVA or Kruskal-Wallis tests with post-hoc pairwise comparisons by Tukey or Dunn tests respectively.

N2-Src = assay: morphology of COS7 cells transfected with N2-Src-FLAG; assay type: cell-based; conditions: COS7, co-transfection with N2-Src-FLAG 48 h; n = 3 experiments
Method: as §1
Figure 3 CFP-PDN1 inhibits the biological activity of N1-Src in cells. […] Twenty representative fields of view (~50 cells) per condition in each experiment were analysed to quantify (b) number of processes per cell and (c). […]
(§2) Analysis of COS7 cell area was performed with ImageJ software. The NeuronJ plugin[43] was used for the quantification of process length and branching in both COS7 cells and neurons. […]

[3] = system: cerebellar granule neurons; assay: neurite outgrowth of cultured cerebellar granule neurons (polyLys); assay type: cell-based, rat; conditions: n = 3 experiments, 30 cells per condition
Method: We next took advantage of the specificity of PDN1 to investigate the role of endogenous N1-Src in neurite outgrowth in cultured neurons. CFP-PDN1 or -PDN1(P5A) was transfected into 1 DIV CGNs and their morphology analysed after […]. During CGN development in vivo and immediately after plating in vitro, the cells grow two processes before polarising to yield a single axon and the second process retracts to become a dendrite and further dendrites are initiated. The axon then extends further before bifurcating. […] To further confirm that N1-Src regulates neurite growth we employed an shRNA expressing plasmid (pSUPER-GFP) to knockdown N1-Src in neurons. […] The successful N1-Src shRNA plasmid was transfected into hippocampal neurons, and the length of the longest neurite in GFP-positive neurons was assessed at 48 h and 96 h post-transfection. […] Thus, perturbing N1-Src activity with PDN1 or knockdown of the protein produces the same neurite phenotype in primary neuronal cultures.
Figure 4 PDN1 inhibits neurite growth in cultured neurons. (a) Cultured cerebellar granule neurons were transfected 24 h after plating with CFP, CFP-PDN1 or CFP-PDN1(P5A) for 48 h prior to fixing and processing for immunofluorescence. Scale bar = 10 μm. (b,c) Length of longest neurite and branches per longest neurite were quantified using the NeuronJ plugin for ImageJ. Data were plotted as mean ± SEM, n = 3 experiments with 30 cells analysed per condition for each experiment. Statistical analysis was performed by one way ANOVA and post-hoc Tukey test (*P < 0.05; ***P < 0.001; n.s = not significant).
COS7 cells were plated at a density of 3 × 10^4 cells per well of a 24 well plate or 10^5 cells per well of a 6 well plate and transfected using EcoTransfect 24 h after plating according to the manufacturer’s instructions (Oz Biosciences, Marseille, France). […]
as §2

[4] = system: cerebellar granule neurons; assay: L1-CAM-dependent neurite elongation in cultured cerebellar granule neurons; assay type: cell-based, rat; conditions: n = 3 experiments
Text: A previous study of Src^−/− mice provided a possible mechanism for the effects of N1-Src upon neurite development. […] Src^−/− mice lack C-, N1- and N2-Src, but the isoform responsible for the impaired neurite outgrowth on L1-CAM was not identified in the study. We therefore investigated whether PDN1 affects L1-CAM-dependent neurite growth in cultured CGNs. Recombinant L1-CAM extracellular domain mixed with the fluorescent dye FITC were spotted in the centre of poly-D-lysine (polyLys) coated glass coverslips (Fig. 6a). CGNs were then plated over the whole surface of the coverslip, allowing a direct comparison between neurons growing on L1-CAM and polyLys.
Figure 6 PDN1 inhibits neurite elongation mediated by L1-CAM. (a) Schematic of the poly-D-lysine (polyLys) coated coverslips treated with a droplet of L1-CAM and FITC. […] (b) Cultured cerebellar granule neurons transfected with CFP were grown on the indicated concentrations of L1-CAM and the length of the longest neurite (axon) determined. (c,d) CGNs were plated on polyLys coated coverslips with a region of […] L1-CAM (see a) and transfected after 24 h with CFP (control) or CFP-PDN1 for 48 h prior to fixing and processing for fluorescence microscopy. Length of longest neurite (c) and branches on the longest neurite (d) were quantified for neurons in the polyLys or L1-CAM regions using the NeuronJ plugin for ImageJ. All data were plotted as mean ± SEM, n = 3 experiments with 30 cells analysed per condition for each experiment. Statistical analysis was performed by one way ANOVA and post-hoc Tukey test (*P < 0.05; **P < 0.01; n.s = not significant).
Using a concentration of 25 μg/ml L1-CAM, which induced a 50% increase in neurite length, we then determined the effect of CFP-PDN1 transfection on neurite length on L1-CAM or polyLys. […]
as §2

N1-Src [5] = biological target: T1, N1-Src; assay: inhibition of N1-Src phosphorylation of GST-Y by free soluble peptide; assay type: biochemical; design: His; made in house; host or cells: E. coli; conditions: free soluble peptide titrated with 5 nM N1-Src and GST-Y; phosphotyrosine immunoblot densitometry; n = 3
Method: Previous studies have shown that soluble SH3 ligands can enhance Src family kinase activity in vitro[20][21]. […] This experiment raised the possibility that PDN1 could act as an N1-Src inhibitor in cells. […] We observed that COS7 cells transfected with N1-Src-FLAG underwent a striking change in morphology within 48 h (Fig. 3a). Similar to that previously observed in Xenopus epithelial cells, overexpression of the kinase induced the growth of neurite-like processes (Fig. 3b) and an approximate 35% reduction in area of the cell soma (Fig. 3c). […] Using cell morphology as a readout, we assessed the effect of CFP-PDN1 and PDN1(P5A) on N1-Src activity in cells. […] We also assessed the effect of PDN1 on N2-Src expressing cells because the first five amino acids of its SH3 insert are identical to that in N1-Src[3].
Figure 2 PDN1 inhibits N1-Src activity in vitro. GST-Y was incubated with 5 nM N1-Src and the indicated concentrations of either PDN1 or PDN1(P5A) and the extent of phosphorylation determined by densitometry of phosphotyrosine immunoreactivity. […]
Phosphorylation reactions were performed as previously described, prepared in kinase reaction buffer (100 mM Tris, 10 mM MgCl2, pH 7.5) and initiated by the addition of pre-warmed ATP (0.5 mM final concentration) and incubated at 30 °C for the indicated times. […] Due to the non-quantitative measurement of V, Vmax was not determined. […]

[6] = CGNs transfected with CFP fusions, one way ANOVA

CFP-PDN1(P5A): PDN1(P5A) mutant fused to CFP, expressed in transfected cells (WHRMAAYTAKYP; also: fused to CFP, end not given here)
binding to N1-Src in cells (co-immunoprecipitation) (N1-Src [1]): greatly reduced
effect on N1-Src-induced shrinkage of the cell soma (cell area) (N1-Src [2]): no significant effect on either parameter
effect on number of neurites (processes) per cell (N1-Src [2]): no significant effect on either parameter

CFP-PDN1: PDN1 fused to CFP, expressed in transfected cells (WHRMPAYTAKYP; also: fused to CFP, end not given here)
rescue of morphology of N2-Src transfected cells (N2-Src): did not rescue wild type morphology
inhibition of mean length of longest neurite on polyLys ([3]; CGNs grown on polyLys, transfected 24 h after plating, 48 h): approximately 40%
branches per longest neurite [3, 6]: longest neurite branching was inhibited
length of longest neurite [3, 6]: reduced in length
binding to N1-Src in cells (co-immunoprecipitation) (N1-Src [1]): can bind N1-Src in cells
effect on N1-Src-induced shrinkage of the cell soma (cell area) (N1-Src [2]): prevented both the shrinkage of the cell soma
effect on number of neurites (processes) per cell (N1-Src [2]): reduced the number of neurites per cell
selectivity for N1-Src in cells (N1-Src [2]; COS7, compared with C-Src and N2-Src): selective for the N1-Src splice variant in cells
length of longest neurite on L1-CAM compared with polyLys ([4]; CFP-PDN1 transfected CGNs on L1-CAM (25 μg/ml in text), 48 h, 30 cells per condition): not significantly different to that on polyLys

PDN1(P5A): PDN1(P5A) mutant peptide (WHRMAAYTAKYP)
inhibition of GST-Y phosphorylation (N1-Src [5]): no significant inhibition

B1: L1-CAM: Recombinant L1-CAM extracellular domain (R&D Systems) (protein, UniProt P32004 20-1120, looked up)
extracellular domain: IQIPEEYEGHHVMEPPVITEQSPRRLVVFPTDDISLKCEASGKPEVQFRWTRDGVHFKPKEELGVTVYQSPHSGSFTITGNNSNFAQRFQGIYRCFASNKLGTAMSHEIRLMAEGAPKWPKETVKPVEVEEGESVVLPCNPPPSAEPLRIYWMNSKILHIKQDERVTMGQNGNLYFANVLTSDNHSDYICHAHFPGTRTIIQKEPIDLRVKATNSMIDRKPRLLFPTNSSSHLVALQGQPLVLECIAEGFPTPTIKWLRPSGPMPADRVTYQNHNKTLQLLKVGEEDDGEYRCLAENSLGSARHAYYVTVEAAPYWLHKPQSHLYGPGETARLDCQVQGRPQPEVTWRINGIPVEELAKDQKYRIQRGALILSNVQPSDTMVTQCEARNRHGLLLANAYIYVVQLPAKILTADNQTYMAVQGSTAYLLCKAFGAPVPSVQWLDEDGTTVLQDERFFPYANGTLGIRDLQANDTGRYFCLAANDQNNVTIMANLKVKDATQITQGPRSTIEKKGSRVTFTCQASFDPSLQPSITWRGDGRDLQELGDSDKYFIEDGRLVIHSLDYSDQGNYSCVASTELDVVESRAQLLVVGSPGPVPRLVLSDLHLLTQSQVRVSWSPAEDHNAPIEKYDIEFEDKEMAPEKWYSLGKVPGNQTSTTLKLSPYVHYTFRVTAINKYGPGEPSPVSETVVTPEAAPEKNPVDVKGEGNETTNMVITWKPLRWMDWNAPQVQYRVQWRPQGTRGPWQEQIVSDPFLVVSNTSTFVPYEIKVQAVNSQGKGPEPQVTIGYSGEDYPQAIPELEGIEILNSSAVLVKWRPVDLAQVKGHLRGYNVTYWREGSQRKHSKRHIHKDHVVVPANTTSVILSGLRPYSSYHLEVQAFNGRGSGPASEFTFSTPEGVPGHPEALHLECQSNTSLLLRWQPPLSHNGVLTGYVLSYHPLDEGGKGQLSFNLRDPELRTHNLTDLSPHLRYRFQLQATTKEGPGEAIVREGGTMALSGISDFGNISATAGENYSVVSWVPKEGQCNFRFHILFKALGEEKGGASLSPQYVSYNQSSYTQWDLQPDTDYEIHLFKERMFRHQMAVKTNGTGRVRLPPAGFATE
modifications: extracellular domain
increase in neurite length by L1-CAM ([4]; 25 μg/ml L1-CAM coating, CFP-transfected CGNs): 50%
neurite outgrowth on L1-CAM ([4]; CFP-transfected CGNs on indicated L1-CAM concentrations): increases neurite outgrowth in a dose dependent manner
